Assay results as given in PMC8172861, “Structural and phylogenetic analyses of resistance to next-generation aminoglycosides conferred by AAC(2′) enzymes” (Scientific Reports, 2021).

Molecular target: the molecule itself
Assay: crystal structure; crystals grown at 4 °C by sitting-drop vapour diffusion, 10 mg/mL AAC(2′)-Ia with 10 mM acetyl-CoA and 10 mM antibiotic (tobramycin, netilmicin or amikacin); two chains (A and B) in the models

B1: AAC(2′)-Ia from Providencia stuartii (enzyme)
chain: MGIEYRSLHTSQLTLSEKEALYDLLIEGFEGDFSHDDFAHTLGGMHVMAFDQQKLVGHVAIIQRHMALDNTPISVGYVEAMVVEQSYRRQGIGRQLMLQTNKIIASCYQLGLLSASDDGQKLYHSVGWQIWKGKLFELKQGSYIRSIEEEGGVMGWKADGEVDFTASLYCDFRGGDQW
notes: AAC(2′)-Ia, aminoglycoside 2′-N-acetyltransferase from Providencia stuartii; synthesized gene in pET-15b (NdeI/BamHI); Crystallised with acetyl-CoA or CoA and an aminoglycoside; also called aminoglycoside (2′)-N-acetyltransferase; source: E. coli BL21(DE3), purified (Ni-IDA-Sepharose, thrombin cleavage, benzamidine column, DEAE Sepharose); not shown: HIS-tag, N-terminal, cleaved
binding result: binds
